Results: PMC5340868 (mBio, 2017)

Key:
[1] = target: T1, rRv3167c (TetR-like regulator) (Mycobacterium tuberculosis, UniProt O53317 1-208); assay: ITC; ITC: 10 mM phosphate pH 7.2, 136 mM NaCl, 4 mM KCl, 25 C ([…]; conditions: protein: recombinant; tags: N-terminal 6xHis (pET28c, NdeI/BamHI); chain copies: 2; blunt
T1 sequence: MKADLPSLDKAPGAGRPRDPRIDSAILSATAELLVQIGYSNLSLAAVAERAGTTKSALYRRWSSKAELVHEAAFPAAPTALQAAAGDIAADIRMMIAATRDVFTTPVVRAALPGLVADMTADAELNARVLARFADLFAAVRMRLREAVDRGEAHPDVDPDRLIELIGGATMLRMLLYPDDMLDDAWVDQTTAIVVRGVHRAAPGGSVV

SEC = target: the molecule itself; assay: SEC
[2] = target: T1, rRv3167c (TetR-like regulator); assay: EMSA; 30 uM protein, 200 nM DNA, 5 mM MgCl2; ITC: 10 mM phosphate pH 7.2, 136 mM NaCl, 4 mM KCl, 25 C ([…]; conditions: protein: recombinant; tags: N-terminal 6xHis (pET28c, NdeI/BamHI); chain copies: 2; blunt

B1: palRv3167c (dsDNA)
DNA 1: TAACGCTACCTAAAGTAGCGTAA
DNA 2: TTACGCTACTTTAGGTAGCGTTA
B1 showed a Kd [1] of 12.3 ± 3.2 µM.

B2: recombinant Rv3167c (rRv3167c), N-terminal 6-histidine tag (natural protein)
chain: MKADLPSLDKAPGAGRPRDPRIDSAILSATAELLVQIGYSNLSLAAVAERAGTTKSALYRRWSSKAELVHEAAFPAAPTALQAAAGDIAADIRMMIAATRDVFTTPVVRAALPGLVADMTADAELNARVLARFADLFAAVRMRLREAVDRGEAHPDVDPDRLIELIGGATMLRMLLYPDDMLDDAWVDQTTAIVVRGVHRAAPGGSVV
notes: also called purified Rv3167c
In the case of B2, the “stoichiometry N” value (SEC) is reported as 2.

B3: randomized control DNA (Negative+/-) (dsDNA)
DNA 1: AGCCTTGCAGGCTAATCGGTAGCTA
DNA 2: TAGCTACCGATTAGCCTGCAAGGCT
B3: no binding [2].
